From patent publication US8710181B2, “Use of tris(hydroxymethyl) aminomethane for the stabilization of peptides, polypeptides and proteins” (Novo Nordisk A/S, priority 2004, dated 2014) come the findings set out here.

Holding throughout (assay type): physicochemical
Data set [1] can be described thus: Repeated preparative runs on Source 30Q and RP-HPLC C-18 columns with TRIS: pressure and fibrillation (Example 3). An excerpt: (§1) Gelation/fibrillation/aggregation can be estimated by the Thioflavin T test […] resulting in a colored response the degree of gelation. Another result would be increased viscosity of the gelated solution resulting in increasing back pressure on chromatographic columns during multiple runs—this is usually the first indication of gelation taking place, […].
An aqueous solution of N^ε-hexadecanoyl-γ-glutamyl-Lys26-Arg34-GLP-1[7-37] containing approximately 2% by weight ethanol and 10 mM of tris(hydroxymethyl)aminomethane, at pH 9.2 was made at room temperature by dissolution of an N^ε-hexadecanoyl-γ-glutamyl-Lys26-Arg34-GLP-1[7-37] isoelectric precipitate directly in the solution.
A preparative aliquot of the solution was loaded on a large scale ion-exchange column, 45 cm I.D. (internal diameter), Source 30Q, Amersham Bioscience, at pH 9.2 and after washing the column with an buffer containing 20 mM tris and 63% by weight ethanol (pH 7.5) to remove impurities, the product was eluted by a sodium chloride gradient at pH 7.5 in a 20 mM tris buffer containing 63% by weight ethanol. The column was regenerated with 1 M NaOH, equilibrated with the pH 7.5 wash buffer, and the column was loaded again with loading solution. Eluate from the Source 30Q column was automatically diluted with water before it was loaded on another large scale column, RP-HPLC column 100 Å C-18, particle diameter 15 μm, column I.D. 45 cm, and eluted with a buffer solution containing 20 mM tris, 125 mM sodium chloride and approx. 45% by weight ethanol at pH 6.9. The column was regenerated with a 70% ethanol solution and subsequently equilibrated with a 25% ethanol solution containing 20 mM Tris.

Data set [2] is described as follows: Repeated runs on Source 30Q and RP-HPLC columns with TRIS: pressure, analysis of column material for aggregated/fibrillated proteins (Example 5). The following applies: 20 mM tris.
Excerpt: as §1
An aqueous solution of N^ε-hexadecanoyl-γ-glutamyl-Lys26-Arg34-GLP-1[7-37] containing approximately 2% by weight ethanol and 10 mM of tris(hydroxymethyl)aminomethane, at pH 9.2 was made at room temperature. Aliquot of the solution was loaded to an ion-exchange column, 45 cm i.d., Source 30Q, Amersham Bioscience, at pH 9.2 and after wash of the column with an neutral buffer containing 20 mM tris and 63% by weight ethanol (pH 7.5), the product was eluted by an sodium chloride gradient at pH 7.5 in a 20 mM tris buffer containing 63% by weight ethanol. The column was regenerated and loaded again with loading solution. One eluate from the Source 30Q column was automatically diluted with water before it was applied to an other column, RP-HPLC column 100 Å C-18, particle diameter i.d. 15 μm, column i.d. 45 cm, and eluted with a buffer containing 20 mM tris, 125 mM sodium chloride and approx. 45% by weight ethanol at pH 6.9.

A short description of data set [3]: Room temperature stability of Arg34-GLP-1[7-37] loading solution and column eluate with TRIS, monitored by RP-HPLC (Example 1). The following applies: for Arg34-GLP-1[7-37] eluate concentration: 10 mM Tris pH 9.2, RP-HPLC; for Arg34-GLP-1[7-37] concentration in loading solution: 10 mM TRIS, pH adjusted to 3.2, RP-HPLC. On the procedure:
An aqueous solution of Arg34-GLP-1[7-37] containing approximately 2% by weight ethanol and 10 mM of tris(hydroxymethyl)aminomethane, at pH 9.2 was made at room temperature, pH was adjusted to 3.2. The room temperature stability of the solution was monitored by RP-HPLC.
The solution was loaded on an ion-exchange column, Source 30S, Amersham Bioscience, at pH 3.23 and after washing the column with an acid buffer containing ethanol and citric acid, the product was eluted with an aqueous solution containing 10 mM Tris at pH 9.2. The room temperature stability of the eluate from the column was monitored by RP-HPLC (Table 1)/(FIG. 1).

The nature of data set [4]: Comparative room temperature stability with glycine instead of TRIS, monitored by RP-HPLC (Comparative Example 1). As for the experimental part:
A comparative test with 20-200 mM glycine instead of tris(hydroxymethyl)aminomethane was done.
An aqueous solution of Arg34-GLP-1[7-37] containing approximately 2% by weight ethanol and 20 mM of glycine, at pH 9.0 was made at room temperature, pH was adjusted to approximately 3.3.
The solution was loaded to an ion-exchange column, Source 30S, Amersham Bioscience, at pH 3.3 and after wash of the column with an acid buffer containing ethanol and citric acid, the product was eluted with an aqueous solution containing 200 mM Glycine at pH 9.5. The stability of the eluate from the column was monitored by RP-HPLC at room temperature for 5 days.

Data set [5] in a line: Repeated preparative runs on Source 30S column 20 cm I.D. with TRIS: pressure and fibrillation (Example 2). On the procedure: as §1
An aqueous solution of Arg34-GLP-1[7-37] containing approximately 2% by weight ethanol and 10 mM of tris(hydroxymethyl)aminomethane, at pH 9.2 was made at room temperature by dissolution of an Arg34-GLP-1[7-37] isoelectric precipitate directly in the solution. Subsequently, pH was adjusted to 3.2.
A preparative aliquot of the solution was loaded on a large scale ion-exchange column, 20 cm I.D. (internal diameter), Source 30S, Amersham Bioscience, at pH 3.3 and after washing the column with an acid buffer containing ethanol and citric acid to remove impurities, the product was eluted with an aqueous solution containing 10 mM Tris at pH 9.2. The column was regenerated with 1 M NaOH, equilibrated with the acidic wash buffer, and the column was loaded again with loading solution. Eluate from the Source 30S column was automatically pH adjusted with 100 mM tris buffer pH 7.4 to pH 8.0.

Data set [6] can be described thus: Repeated runs on Source 30S column 45 cm i.d. with TRIS: pressure, analysis of column material for aggregated/fibrillated proteins (Example 4). The following applies: after 283 runs on Source 30S column, 10 mM Tris. As for the experimental part: as §1
An aqueous solution of Arg34-GLP-1[7-37] containing approximately 2% by weight ethanol and 10 mM of tris(hydroxymethyl)aminomethane, at pH 9.2 was made at room temperature, pH was adjusted to 3.2.
Aliquot of the solution was loaded to an ion-exchange column, 45 cm i.d., Source 30S, Amersham Bioscience, at pH 3.3 and after wash of the column with an acid buffer containing ethanol and citric acid, the product was eluted with an aqueous solution containing 10 mM Tris at pH 9.2. The column was regenerated and loaded again with loading solution.

Setting [7] is: after 60 runs on both Source 30Q column and RP-HPLC column, tris buffers with ethanol.
[8] abbreviates: after 77 runs on Source 30Q column, 63% ethanol.
The mark [9] stands for this setting: after 60 runs on Source 30S column, 20 cm I.D., 10 mM Tris.

Turning to “N^ε-hexadecanoyl-γ-glutamyl-Lys26-Arg34-GLP-1[7-37]”, the “fibrillation in loading solutions and eluates” value in data set [1] (60 runs, Source 30Q and RP-HPLC, 10-20 mM tris) is listed as “no fibrillation was observed”. Moreover, in data set [1] (setting [7]), the “change in pressure on column” value was “no change in pressure was observed” and the “fibrillation on the column” value is “no fibrillation had occurred on the column”. Moreover, the “aggregated/fibrillated proteins on the column material” value in data set [2] (RP-HPLC column 100 Å C-18 after 49 runs, 125 mM NaCl, approx. 45% ethanol, pH 6.9) is on record as “no observations of aggregated/fibrillated proteins”. Also, in data set [2] (setting [8]), the “aggregated/fibrillated proteins on the column material” value is “no observation of aggregated/fibrillated proteins” and the “change in pressure on column” value is listed as “without change in pressure”.
With Arg34-GLP-1[7-37], the “Arg34-GLP-1[7-37] eluate concentration” value in data set [3] (Day 0, Source 30S eluate) is 1.4 mg/mL; in data set [3] (Day 1, Source 30S eluate) it was 1.4 mg/mL; in data set [3] (Day 2, Source 30S eluate) it was 1.4 mg/mL; in data set [3] (Day 3, Source 30S eluate), 1.3 mg/mL. Also, the “Arg34-GLP-1[7-37] concentration in loading solution” value in data set [3] (Day 0, approx. 2% ethanol) was found to be 1.7 mg/mL; in data set [3] (Day 1, approx. 2% ethanol), 1.7 mg/mL; in data set [3] (Day 2, approx. 2% ethanol), 1.7 mg/mL; in data set [3] (Day 5, approx. 2% ethanol), 1.7 mg/mL. In addition, the Gelation/fibrillation/aggregation result in data set [3] (loading solution and eluate with 10 mM TRIS) is on record as “not observed”. In addition, the “stability at room temperature (fibrillation)” value in data set [4] (eluate, 200 mM Glycine pH 9.5) is listed as “less than one day”; in data set [4] (loading solution, 20 mM glycine, approx. 2% ethanol, pH approx. 3.3), “less than one day”. Also, the “fibrillation in loading solution and eluate” value in data set [5] (60 runs, Source 30S, 10 mM TRIS loading solution, eluate adjusted to pH 8.0 with tris buffer) is reported as “no fibrillation was observed”. For the same substance, the figures for the “change in pressure on column” value in data set [5] (setting [9]) and in data set [6] were “no change in pressure was observed” and “without change in pressure”, respectively. In addition, the “fibrillation on the column” value in data set [5] (setting [9]) was “no fibrillation had occurred on the column”. Also, the “proteins or aggregated/fibrillated proteins on the column material” value in data set [6] is “no observation of proteins or aggregated/fibrillated proteins”.
